In patent US20040198654A1 (Eli Lilly, published 2004):
Where no end group is shown, it is not given here.

B1: Val^8-Leu^25-GLP-1(7-37)OH (peptide)
peptide: HVEGTFTSDVSSYLEGQALKEFIAWLVKGRG-OH
B2: Val^8-Glu^30-GLP-1(7-37)OH (peptide)
peptide: HVEGTFTSDVSSYLEGQAAKEFIEWLVKGRG-OH
B3: Val^8-His^37-GLP-1(7-37)OH (peptide)
peptide: HVEGTFTSDVSSYLEGQAAKEFIAWLVKGRH-OH
B4: Val^8-Tyr^12-Tyr^16-GLP-1(7-37)OH (peptide)
peptide: HVEGTYTSDYSSYLEGQAAKEFIAWLVKGRG-OH
B5: Val^8-Trp^12-Glu^22-GLP-1(7-37)OH (peptide)
peptide: HVEGTWTSDVSSYLEEQAAKEFIAWLVKGRG-OH
B6: Val^8-Tyr^12-Glu^22-GLP-1(7-37)OH (peptide)
peptide: HVEGTYTSDVSSYLEEQAAKEFIAWLVKGRG-OH
B7: Val^8-Tyr^16-Phe^19-GLP-1(7-37)OH (peptide)
peptide: HVEGTFTSDYSSFLEGQAAKEFIAWLVKGRG-OH
B8: Val^8-Leu^16-Glu^22-GLP-1(7-37)OH (peptide)
peptide: HVEGTFTSDLSSYLEEQAAKEFIAWLVKGRG-OH
B9: Val^8-Ile^16-Glu^22-GLP-1(7-37)OH (peptide)
peptide: HVEGTFTSDISSYLEEQAAKEFIAWLVKGRG-OH
B10: Val^8-Phe^16-Glu^22-GLP-1(7-37)OH (peptide)
peptide: HVEGTFTSDFSSYLEEQAAKEFIAWLVKGRG-OH
B11: Val^8-Phe^18-Glu^22-GLP-1(7-37)OH (peptide)
peptide: HVEGTFTSDVSFYLEEQAAKEFIAWLVKGRG-OH
B12: Val^8-Ile^18-Glu^22-GLP-1(7-37)OH (peptide)
peptide: HVEGTFTSDVSIYLEEQAAKEFIAWLVKGRG-OH
B13: Gly^8-GLP-1(7-37)OH (peptide)
peptide: HGEGTFTSDVSSYLEGQAAKEFIAWLVKGRG-OH
B14: Val^8-Lys^18-Glu^22-GLP-1(7-37)OH (peptide)
peptide: HVEGTFTSDVSKYLEEQAAKEFIAWLVKGRG-OH
B15: Val^8-Trp^19-Glu^22-GLP-1(7-37)OH (peptide)
peptide: HVEGTFTSDVSSWLEEQAAKEFIAWLVKGRG-OH
B16: Val^8-Phe^19-Glu^22-GLP-1(7-37)OH (peptide)
peptide: HVEGTFTSDVSSFLEEQAAKEFIAWLVKGRG-OH
B17: Val^8-Phe^20-Glu^22-GLP-1(7-37)OH (peptide)
peptide: HVEGTFTSDVSSYFEEQAAKEFIAWLVKGRG-OH
B18: Val^8-Glu^22-Leu^25-GLP-1(7-37)OH (peptide)
peptide: HVEGTFTSDVSSYLEEQALKEFIAWLVKGRG-OH
B19: Val^8-GLU^22-Ile^25-GLP-1(7-37)OH (peptide)
peptide: HVEGTFTSDVSSYLEEQAIKEFIAWLVKGRG-OH
B20: Val^8-Glu^22-Ile^27-GLP-1(7-37)OH (peptide)
peptide: HVEGTFTSDVSSYLEEQAAKIFIAWLVKGRG-OH
B21: Val^8-Tyr^12-GLP-1(7-37)OH (peptide)
peptide: HVEGTYTSDVSSYLEGQAAKEFIAWLVKGRG-OH
B22: Val^8-Glu^22-His^37-GLP-1(7-37)OH (peptide)
peptide: HVEGTFTSDVSSYLEEQAAKEFIAWLVKGRH-OH
B23: Val^8-Asp^9-Ile^11-Tyr^16-Glu^22-GLP-1(7-37)OH (peptide)
peptide: HVDGIFTSDYSSYLEEQAAKEFIAWLVKGRG-OH
B24: Val^8-Tyr^16-Trp^19-Glu^22-GLP-1(7-37)OH (peptide)
peptide: HVEGTFTSDYSSWLEEQAAKEFIAWLVKGRG-OH
B25: Val^8-Trp^16-Glu^22-Val^25-Ile^33-GLP-1(7-37)OH (peptide)
peptide: HVEGTFTSDWSSYLEEQAVKEFIAWLIKGRG-OH
B26: Val^8-Trp^16-Glu^22-Ile^33-GLP-1(7-37)OH (peptide)
peptide: HVEGTFTSDWSSYLEEQAAKEFIAWLIKGRG-OH
B27: Val^8-Tyr^12-GLP-1(7-36)NH2 (peptide)
peptide: HVEGTYTSDVSSYLEGQAAKEFIAWLVKGR-NH2
B28: Val^8-Trp^16-Glu^22-Val^25-GLP-1(7-37)OH (peptide)
peptide: HVEGTFTSDWSSYLEEQAVKEFIAWLVKGRG-OH
B29: Val^8-Trp^12-GLP-1(7-37)OH (peptide)
peptide: HVEGTWTSDVSSYLEGQAAKEFIAWLVKGRG-OH
B30: Val^8-Leu^16-GLP-1(7-37)OH (peptide)
peptide: HVEGTFTSDLSSYLEGQAAKEFIAWLVKGRG-OH
B31: Val^8-Tyr^16-GLP-1(7-37)OH (peptide)
peptide: HVEGTFTSDYSSYLEGQAAKEFIAWLVKGRG-OH

Each binder was assayed against GLP-1 receptor (assay: cell-based or functional assay).

Point of comparison: B8, “GLP-1 receptor activation relative to Val^8-GLP-1(7-37)OH” value 4.3 fold of Val^8-GLP-1(7-37)OH. Against it:
- B1 — lower, 0.5 fold of Val^8-GLP-1(7-37)OH
- B2 — lower, 0.7 fold of Val^8-GLP-1(7-37)OH
- B3 — lower, 1.2 fold of Val^8-GLP-1(7-37)OH
- B4 — lower, 1.5 fold of Val^8-GLP-1(7-37)OH
- B5 — lower, 1.7 fold of Val^8-GLP-1(7-37)OH
- B6 — lower, 2.7 fold of Val^8-GLP-1(7-37)OH
- B7 — lower, 2.8 fold of Val^8-GLP-1(7-37)OH
- B9 — lower, 3.3 fold of Val^8-GLP-1(7-37)OH
- B10 — lower, 2.3 fold of Val^8-GLP-1(7-37)OH
- B11 — lower, 2 fold of Val^8-GLP-1(7-37)OH
- B12 — lower, 4 fold of Val^8-GLP-1(7-37)OH
- B13 — lower, 1.7 fold of Val^8-GLP-1(7-37)OH
- B14 — lower, 2.5 fold of Val^8-GLP-1(7-37)OH
- B15 — lower, 3.2 fold of Val^8-GLP-1(7-37)OH
- B16 — lower, 1.5 fold of Val^8-GLP-1(7-37)OH
- B17 — lower, 2.7 fold of Val^8-GLP-1(7-37)OH
- B18 — lower, 2.8 fold of Val^8-GLP-1(7-37)OH
- B19 — lower, 3.1 fold of Val^8-GLP-1(7-37)OH
- B20 — lower, 2 fold of Val^8-GLP-1(7-37)OH
- B21 — lower, 1.7 fold of Val^8-GLP-1(7-37)OH
- B22 — higher, 4.7 fold of Val^8-GLP-1(7-37)OH
- B23 — the same, 4.3 fold of Val^8-GLP-1(7-37)OH
- B24 — lower, 3.5 fold of Val^8-GLP-1(7-37)OH
- B25 — higher, 5 fold of Val^8-GLP-1(7-37)OH
- B26 — lower, 4.1 fold of Val^8-GLP-1(7-37)OH
- B27 — lower, 1.1 fold of Val^8-GLP-1(7-37)OH
- B28 — higher, 4.4 fold of Val^8-GLP-1(7-37)OH
- B29 — lower, 1.1 fold of Val^8-GLP-1(7-37)OH
- B30 — lower, 1.1 fold of Val^8-GLP-1(7-37)OH
- B31 — lower, 2.5 fold of Val^8-GLP-1(7-37)OH
